In the RNAGym collection of RNA variant scans (doi:10.1073/pnas.2313332121):
Variants at the floor of the assay were thinned out.

B1: TPR 5TU (parent)
chain: GGAUCUUCUCGAUCUAACAAAAAAGACAAAUCUGCCACAAAGCUUGAGAGCAUCUUCGGAUGCAGAGGCGGCAGCCUUCGGUGGCGCGAUAGCGCCAACGUUCUCAACUAUGACACGCAAAACGCGUGCUCCGUUGAAUGGAGUUUAUCAUG

Variants of: B1
Assay: polymerase ribozyme fitness, log enrichment relative to wild type (log ratio); higher = more active; in vitro selection for triplet polymerase activity
Summary of the method: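 Fitness compares each genotype's enrichment to that of the wild type on a logarithmic scale, averaging replicates with inverse-variance weights. The logarithm is base 2. Enrichment came from Illumina sequencing of input and output libraries after one triplicate round of in vitro selection, which included frozen incubation at −7 °C, of PCR-built, transcribed mutant libraries of each subunit of a heterodimeric triplet polymerase ribozyme. Only genotypes with ≥10 input reads and ≥1 read per output were kept.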

Row | Variant | polymerase ribozyme fitness (log ratio)
1 | C36A U45A C87G A91G | ≤ -4.2
2 | C35U U44A C54A C87U A110U | ≤ -4.2
3 | C35U A52C C85U G117U | -2.29
4 | C36A A98U A113U C118U U148A | ≤ -4.2
5 | C35U A73U G88U C108G | ≤ -4.2
6 | C35U C43A C95G U101C | ≤ -4.2
7 | C36A C54G C57A G86A U139G | ≤ -4.2
8 | C36A C57G U77C A119G | ≤ -4.2
9 | C35U G46A A119G A121U | -1.45
10 | C36A A122U G126A G136C | ≤ -4.2
11 | C35U U55A G84U A147C | -2.79
12 | C36A G59A U144G | -3.49
13 | C35U A52C G81A G86U C95A | ≤ -4.2
14 | C35U G46C C72U G74U C96U A107G | ≤ -4.2
15 | C35G G84A C93G U101G | ≤ -4.2
16 | C36A G48U C54G C57A C72A A91C | ≤ -4.2
17 | C35U G50C | -3.9
18 | C35U G59A G83U A98C G128C | -3.94
19 | C35U C93A A120C G126A A150U | -4
20 | C35U C38G G86A G126A G136U | ≤ -4.2
21 | C36A C87U G140C | ≤ -4.2

Row | Variant | polymerase ribozyme fitness (log ratio)
22 | C35G G62C G67C C85G C131A A147U | ≤ -4.2
23 | C36A G62C C63U | ≤ -4.2
24 | C35U C51U G67A G92A C131G G133A U145G | ≤ -4.2
25 | C35U C57U C95G C99G A120U | -3.85
26 | C36A A66C G81A A91C C93U | ≤ -4.2
27 | C36A A39C U56C C87U U144G | ≤ -4.2
28 | C35G G141C | -3.66
29 | C35U U44A A49C G74U G80A U109G A121G | ≤ -4.2
30 | C35U C79A G81U C93A U102A U127A | ≤ -4.2
31 | C35U U55G A91G A106G G141A | ≤ -4.2
32 | C35U C38A G83U G152A | ≤ -4.2
33 | C35U A41G C96A U144A | -0.485
34 | C36A C105U U127G | ≤ -4.2
35 | C35U C95U A107C U109A A115U | ≤ -4.2
36 | C35U A91G | -2.83
37 | C35U C51U U55C C85A U101C C103A U144A | ≤ -4.2
38 | C35U A49C U53G C75G G92A A119U A120G G133U A138C | ≤ -4.2
39 | C36A A73U G92U U134G G143U | -4.13
40 | C35U G117U | 0.973
41 | C35U C75A G86A A107G G140U | ≤ -4.2
42 | C35U A47C G80U C87U | -3.9

Row | Variant | polymerase ribozyme fitness (log ratio)
43 | C35U G46U C96U | -1.23
44 | C35G G86A A120C C125U G143C | ≤ -4.2
45 | C36A G84U C114A A120U G143U | -4.19
46 | C35U G141A | 0.194
47 | C35U A41G C85U G141U | 1.25
48 | C36A C75A C87G A106U C149G | ≤ -4.2
49 | C36A A49C G71U G92A A107G U145C | ≤ -4.2
50 | C35U C96G | -0.818
51 | C35U C96U | -0.126
52 | C35G U55A G94A U101G C131U | ≤ -4.2
53 | C35U G81U U82G G88U G94U U139C C149A | ≤ -4.2
54 | C35U A47C U56G A64U A106U G133U | ≤ -4.2
55 | C35U C99G A119C G141U | -1.83
56 | C35U G48A U78C C96G G117C | ≤ -4.2
57 | C35U G88A A115C A119G | -3.86
58 | C36A C57U A66C C99A | ≤ -4.2
59 | C35U U56A U61A C63U A64G | ≤ -4.2
60 | C35U A49G A97G A119C | -2.09
61 | C35U G50U U56A G68A C85U A137C | ≤ -4.2
62 | C36A C85U | -3.7
63 | C35U C93G G141A | -3.56

Row | Variant | polymerase ribozyme fitness (log ratio)
64 | C35U A40G C51U G81C C87A | ≤ -4.2
65 | C35U G50U G59C A60U C85A G94C G141A | ≤ -4.2
66 | C36A C75U G83A A89C C99G C105U C123A C125A | ≤ -4.2
67 | C35U C54G A66U C79A G80A G83C G84A C96U U101G U148C | ≤ -4.2
68 | C36A U45A U61A C87U A97C G126A | ≤ -4.2
69 | C35U G83A | -0.173
70 | C35U C54G C57G C69U U82A A91U G92A A113G | ≤ -4.2
71 | C35U U56A C57A A97U C123U U130C | -0.0554
72 | C35G G83C A91C C108U G136U | ≤ -4.2
73 | C35U G92A A122G | -3.92
74 | C35G G83A A89C A142U | ≤ -4.2
75 | C35U G84C | -1.94
76 | C35U C69U A91G C118A | -3.8
77 | C35U A73U C75G C76G U90C | ≤ -4.2
78 | C35U C93A C103G | ≤ -4.2
79 | C35G G84A U104G U109G G140U | ≤ -4.2
80 | C35U C43A G58U C75G C87G A121U C123U G133A | ≤ -4.2
81 | C35U C85U | -0.375
82 | C35U C85A | -1.42
83 | C35U G71U | -3.53
